Test results as given in patent US20230203170A1 (DRAGONBOAT BIOPHARMACEUTICAL SHANGHAI, published 2023).

T1: full-length mouse CSF-1R (RefSeq ID NP_001032948) expressed on HEK293F cells (mouse, UniProt P09581 20-977)
T1 construct: whole, on cells
T1 sequence (looked up): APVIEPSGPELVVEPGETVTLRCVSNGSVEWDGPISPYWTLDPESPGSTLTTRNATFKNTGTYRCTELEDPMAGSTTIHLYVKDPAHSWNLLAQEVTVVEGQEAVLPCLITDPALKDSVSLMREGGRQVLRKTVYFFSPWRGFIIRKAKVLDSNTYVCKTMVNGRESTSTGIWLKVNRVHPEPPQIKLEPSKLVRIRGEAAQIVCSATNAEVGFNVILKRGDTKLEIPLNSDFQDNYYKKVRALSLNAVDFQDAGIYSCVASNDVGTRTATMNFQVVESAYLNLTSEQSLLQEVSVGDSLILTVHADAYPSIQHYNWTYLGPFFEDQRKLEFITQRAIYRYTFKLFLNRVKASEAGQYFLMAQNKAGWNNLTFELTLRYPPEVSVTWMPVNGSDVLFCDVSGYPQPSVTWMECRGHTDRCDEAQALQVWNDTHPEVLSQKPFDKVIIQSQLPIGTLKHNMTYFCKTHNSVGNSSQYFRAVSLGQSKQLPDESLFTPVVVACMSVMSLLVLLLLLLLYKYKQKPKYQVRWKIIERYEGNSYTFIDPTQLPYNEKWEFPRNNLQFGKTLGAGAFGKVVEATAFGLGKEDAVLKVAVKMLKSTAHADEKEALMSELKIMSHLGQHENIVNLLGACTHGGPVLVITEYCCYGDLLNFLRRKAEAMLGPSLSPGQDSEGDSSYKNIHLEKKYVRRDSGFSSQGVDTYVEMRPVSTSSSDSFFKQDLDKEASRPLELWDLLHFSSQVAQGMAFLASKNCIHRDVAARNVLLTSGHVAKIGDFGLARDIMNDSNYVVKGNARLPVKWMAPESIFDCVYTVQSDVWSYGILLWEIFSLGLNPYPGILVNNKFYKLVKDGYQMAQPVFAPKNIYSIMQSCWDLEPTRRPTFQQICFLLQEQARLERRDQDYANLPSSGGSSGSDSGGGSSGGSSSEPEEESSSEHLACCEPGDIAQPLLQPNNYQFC


Tests used:
[1] = target: T2, human CSF1R-His (Acrobiosystem, CSR-H5228) (human, UniProt P07333 20-512, limits assumed); test: SPR Biacore T200; IgG captured by anti-human Fc, CSF1R-His as analyte, 1:1 fit
T2 construct: Bought protein; The catalogue number is printed only for the SPR assay; also called human CSF-1R protein; not shown: His tag
Excerpt: The specific binding affinity and kinetics of antibodies against human CSF-1R protein were examined by surface plasmon resonance (SPR) analysis using a Biacore™ T200 instrument (GE, USA) according to the manufacturer’s guidelines. Anti-Human IgG (Fc) antibody (Sigma, I2136) was immobilized on CM5 chips according to the instructions of Amine Coupling kit (GE Biacore #BR-1000-50). The immobilized Anti-Human IgG (Fc) antibody was used to capture the antibodies. […] The running buffer used was 0.01 M HEPES, 0.15 M NaCl, 3 mM EDTA, 0.05% (v/v) surfactant P20, pH 7.4. Corresponding controls were conducted in each case using a blank flow cell with no protein captured for “background” subtraction. The association and dissociation curves were fitted to a 1:1 Langmuir binding model using Biacore T200 Evaluation Software (GE, USA) according to the manufacturer’s guidelines.

[2] = target: T1, full-length mouse CSF-1R (RefSeq ID …); test: flow cytometry on HEK293F cells transiently expressing full-length mouse CSF-1R (IRES-EGFP vector), Alexa Fluor 647 anti-human Fc detection [Conti.]
Procedure: (§1) The specificities of the antibodies were also assessed against human, monkey and mouse CSF-1R that are transiently expressed on the surface of HEK293F cells (FIG. 1). Briefly, HEK293F cells were transfected with a plasmid expressing full-length human, monkey (RefSeq ID XP_015307616) or mouse (RefSeq ID NP_001032948) CSF-1R from a bicistronic IRES vector. EGFP was used to identify the transfected cells. After 40 hrs, the transfected cells were harvested and then washed once with 1% PBSA buffer (1% (w/v) BSA in 1×PBS). Cells were then incubated with various IgGs (each at 100 nM) for 1 hr at room temperature, washed once with pre-chilled 1% PBSA buffer, and incubated with Alexa Fluor® 647 conjugated mouse anti-human Fc antibodies for 30 min on ice. The cells were washed once prior to analysis by flow cytometry (Beckman® CytoFlex).

[3] = target: T3, full-length human CSF-1R expressed on cells (human, UniProt P07333 20-972); test: flow cytometry on HEK293F cells transiently expressing full-length human CSF-1R (IRES-EGFP vector), IgG at 100 nM, Alexa Fluor 647 anti-human Fc detection
T3 construct: whole, on cells
Procedure: as §1

[4] = target: T1, full-length mouse CSF-1R (RefSeq ID …); test: flow cytometry on HEK293F cells transiently expressing full-length mouse CSF-1R (IRES-EGFP vector), IgG at 100 nM, Alexa Fluor 647 anti-human Fc detection
Procedure: as §1

[5] = target: T1, full-length mouse CSF-1R (RefSeq ID …); test: flow cytometry on HEK293F cells transiently expressing full-length mouse CSF-1R (IRES-EGFP vector), Alexa Fluor 647 anti-human Fc detection
Procedure: as §1

[6] = target: T4, full-length monkey CSF-1R (RefSeq ID XP_015307616) expressed on HEK293F cells (monkey, UniProt A0A2K5WG90 20-976); test: flow cytometry on HEK293F cells transiently expressing full-length monkey CSF-1R (IRES-EGFP vector), IgG at 100 nM, Alexa Fluor 647 anti-human Fc detection
T4 sequence (A0A2K5WG90 entry or part of it limits assumed, form in doubt): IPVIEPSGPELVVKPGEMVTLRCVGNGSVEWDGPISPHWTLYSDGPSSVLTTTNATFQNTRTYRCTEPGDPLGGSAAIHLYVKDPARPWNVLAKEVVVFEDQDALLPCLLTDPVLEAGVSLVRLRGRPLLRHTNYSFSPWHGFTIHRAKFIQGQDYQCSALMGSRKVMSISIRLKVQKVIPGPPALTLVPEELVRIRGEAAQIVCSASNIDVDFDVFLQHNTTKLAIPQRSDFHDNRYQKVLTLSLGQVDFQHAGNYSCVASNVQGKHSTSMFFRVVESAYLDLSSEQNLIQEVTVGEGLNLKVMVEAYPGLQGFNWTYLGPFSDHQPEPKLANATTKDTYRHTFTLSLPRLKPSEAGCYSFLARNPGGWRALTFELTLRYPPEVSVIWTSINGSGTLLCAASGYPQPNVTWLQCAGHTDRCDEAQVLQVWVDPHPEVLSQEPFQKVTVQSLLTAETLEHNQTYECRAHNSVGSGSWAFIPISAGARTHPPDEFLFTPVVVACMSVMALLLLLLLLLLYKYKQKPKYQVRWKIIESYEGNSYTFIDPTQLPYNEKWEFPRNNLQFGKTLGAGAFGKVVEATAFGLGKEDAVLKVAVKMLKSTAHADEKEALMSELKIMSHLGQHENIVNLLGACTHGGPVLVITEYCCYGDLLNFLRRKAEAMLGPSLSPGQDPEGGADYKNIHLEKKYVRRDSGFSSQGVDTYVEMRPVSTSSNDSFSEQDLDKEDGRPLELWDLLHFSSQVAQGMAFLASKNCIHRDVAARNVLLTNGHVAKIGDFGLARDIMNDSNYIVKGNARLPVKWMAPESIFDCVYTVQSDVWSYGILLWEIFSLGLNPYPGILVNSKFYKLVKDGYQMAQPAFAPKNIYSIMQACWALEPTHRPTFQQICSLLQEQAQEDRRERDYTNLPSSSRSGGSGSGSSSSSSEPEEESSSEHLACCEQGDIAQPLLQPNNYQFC
Procedure: as §1

[7] = target: T4, full-length monkey CSF-1R (RefSeq ID …); test: flow cytometry on HEK293F cells transiently expressing full-length monkey CSF-1R (IRES-EGFP vector), IgG at 100 nM, Alexa Fluor 647 anti-human Fc detection [Conti.]
Procedure: as §1

[8] = target: T3, full-length human CSF-1R expressed on …; test: flow cytometry on HEK293F cells transiently expressing full-length human CSF-1R (IRES-EGFP vector), IgG at 100 nM, Alexa Fluor 647 anti-human Fc detection [Conti.]
Procedure: as §1

Binder | Kd [1] | binding result [2] | percent of cells in the upper right quadrant (APC Ab binding positive, FITC Ag display positive) [3] | percent of cells in the upper right quadrant (APC Ab binding positive, FITC Ag display positive) [4] | binding result [5] | percent of cells in the upper right quadrant (APC Ab binding positive, FITC Ag display positive) [6] | percent of cells in the upper right quadrant (APC Ab binding positive, FITC Ag display positive) [7] | percent of cells in the upper right quadrant (APC Ab binding positive, FITC Ag display positive) [8]
TAC2205 (antibody, human IgG4, V domains shown) VH: QVQLVQSGAEVKKPGSSVKVSCKASGYTFTDNYMIWVRQAPGQGLEWMGDINPYNGGTTFNQKFKGRVTITADKSTSTAYMELSSLRSEDTAVYYCARESPYFSNLYVMDYWGQGTLVTVSS VL: EIVLTQSPATLSLSPGERATLSCKASQSVDYDGDNYMNWYQQKPGQAPRLLIYAASNLESGIPARFSGSGSGTDFTLTISSLEPEDFAVYYCHLSNEDLSTFGGGTKVEIK | 0.67 nM | no binding (tested: 100 nM) |  |  |  |  |  | 
TAC2188 (antibody, human IgG4, V domains shown) VH: QVQLVQSGAEVKKPGASVKVSCKASGYTFTSYDISWVRQAPGQGLEWMGVIWTDGGTNYAQKLQGRVTMTTDTSTSTAYMELRSLRSDDTAVYYCARDQRLYFDVWGQGTTVTVSS VL: DIQMTQSPSSLSASVGDRVTITCRASEDVNTYVSWYQQKPGKAPKLLIYAASNRYTGVPSRFSGSGSGTDFTLTISSLQPEDFATYYCQQSFSYPTFGQGTKLEIK |  | no binding (tested: 100 nM) |  |  |  |  |  | 
TY21433 (antibody, human IgG4, V domains shown, Human IgG4 isotype with S241P mutation) VH: EVQLVESGGGLVQPGGSLRLSCAASGFTFSNYAIHWVRQAPGKGLEWVSVISGYGSTTYYADSVKGRFTISRDNSKNTLYLQLNSLRAEDTAVYYCARSTVATPFAYWGQGTLVTVSS VL: DIQLTQSPSSLSASVGDRVTITCKASQDVRTAVAWYQQKPGKAPKLLIYAASTLQSGVPSRFSGSGSGTDFTLTISSLQPEDFATYYCQQSYPWPWTFGQGTKVEIK | 3.51 nM | no binding (tested: 100 nM) |  |  |  |  |  | 
TY21372 (antibody, human IgG4, V domains shown, Human IgG4 isotype with S241P mutation) VH: EVQLVESGGGLVQPGGSLRLSCAASGYTFSDYAIHWVRQAPGKGLEWVSVISGYGSTTYYADSVKGRFTISRDNSKNTLYLQLNSLRAEDTAVYYCARASSYGGFDYWGQGTLVTVSS VL: DIQLTQSPSSLSASVGDRVTITCRASQDVSTAVAWYQQKPGKAPKLLIYDASNRATGIPSRFSGSGSGTDFTLTISSLQPEDFATYYCQQYYPWPWTFGQGTKVEIK | 1.61 nM |  | 37.4% |  | no binding (tested: 100 nM) | 33.7% |  | 

Continued by falling Kd [1], values first:

Kd [1] | binding result [2] | percent of cells in the upper right quadrant (APC Ab binding positive, FITC Ag display positive) [3] | percent of cells in the upper right quadrant (APC Ab binding positive, FITC Ag display positive) [4] | binding result [5] | percent of cells in the upper right quadrant (APC Ab binding positive, FITC Ag display positive) [6] | percent of cells in the upper right quadrant (APC Ab binding positive, FITC Ag display positive) [7] | percent of cells in the upper right quadrant (APC Ab binding positive, FITC Ag display positive) [8] | Binder
35.5 nM |  | 43.8% | 0.081% | no binding (tested: 100 nM) | 32.6% |  |  | TY21375 (antibody, human IgG4, V domains shown, Human IgG4 isotype with S241P mutation) VH: EVQLVESGGGLVQPGGSLRLSCAASGFTFSDYAIHWVRQAPGKGLEWVSVISGYGGSTYYADSVKGRFTISRDNSKNTLYLQLNSLRAEDTAVYYCARSGGGGYYFDYWGQGTLVTVSS VL: DIQLTQSPSSLSASVGDRVTITCRASQGIRSYLAWYQQKPGKAPKLLIYAASSLQSGVPSRFSGSGSGTDFTLTISSLQPEDFATYYCQQSYHWPLTFGQGTKVEIK
23.6 nM |  | 37.4% | 0.77% | no binding (tested: 100 nM) |  |  |  | TY21373 (antibody, human IgG4, V domains shown, Human IgG4 isotype with S241P mutation) VH: EVQLVESGGGLVQPGGSLRLSCAASGYSISSGYYWGWIRQAPGKGLEWVSSISGYGSSTYYADSVKGRFTISRDNSKNTLYLQLNSLRAEDTAVYYCARGAYGYFDYWGQGTLVTVSS VL: DIQLTQSPSSLSASVGDRVTITCPASSSVSYIHWYQQKPGKAPKLLIYDASNLETGVPSRFSGSGSGTDFTLTISSLQPEDFATYYCQQYYPWPWTFGQGTKVEIK
9.86 nM | no binding (tested: 100 nM) |  |  |  |  | 31.3% | 41.3% | TY21428 (antibody, human IgG4, V domains shown, Human IgG4 isotype with S241P mutation) VH: EVQLVESGGGLVQPGGSLRLSCAASGFTFSNYGIHWVRQAPGKGLEWVSVISGYGGSTYYADSVKGRFTISRDNSKNTLYLQLNSLRAEDTAVYYCARRGLTSTYFDYWGQGTLVTVSS VL: DIQLTQSPSSLSASVGDRVTITCRASQSVGSWLAWYQQKPGKAPKLLIYDASNLETGVPSRFSGSGSGTDFTLTISSLQPEDFATYYCQQSYPIPPTFGQGTKVEIK
3.18 nM | no binding (tested: 100 nM) |  |  |  |  | 34.2% |  | TY21429 (antibody, human IgG4, V domains shown, Human IgG4 isotype with S241P mutation) VH: EVQLVESGGGLVQPGGSLRLSCAASGYTFSNYAIHWVRQAPGKGLEWVSAISGTGSSTYYADSVKGRFTISRDNSKNTLYLQLNSLRAEDTAVYYCARHSHSRYAFDYWGQGTLVTVSS VL: DIQLTQSPSSLSASVGDRVTITCRASHVRTAVAWYQQKPGKAPKLLIYDASNLETGVPSRFSGSGSGTDFTLTISSLQPEDFATYYCQQYYPWPWTFGQGTKVEIK
0.6 nM |  | 40.2% | 3.71% | no binding (tested: 100 nM) | 29.5% |  |  | TY21371 (antibody, V domains shown, Human IgG4 isotype with S241P mutation (Uniprot P01861); Its IgG1 format is called TY22179 (used only in PK/PD)) VH: EVQLVESGGGLVQPGGSLRLSCAASGFTFSGYAIHWVRQAPGKGLEWVSVISGYGSSTYYADSVKGRFTISRDNSKNTLYLQLNSLRAEDTAVYYCARDPGVGGFDVWGQGTLVTVSS VL: DIQLTQSPSSLSASVGDRVTITCRASQSVRRRFLAWYQQKPGKAPKLLIYDASSLESGVPSRFSGSGSGTDFTLTISSLQPEDFATYYCQQYYPIPRTFGQGTKVEIK
